Measured values: the MegaScale stability set (Tsuboyama et al. 2023)

B1: EHEE_rd2_1257 (parent)
chain: EEERTFTNEEEARKAKKEAEKRGLRVTVTKDGTTWRVRIG

Variants of: B1
Test: folding stability dG (cDNA display proteolysis); higher = more stable
Details: PBS, room temperature

Folding stability dG [kcal/mol] of substitutions, site by site:
E1: A 2.21, D 2.1, F 2.99, G 2.25, H 2.05, I 2.74, K 1.7, L 2.33, M 2.38, N 1.87, P 2.07, Q 1.94, R 1.83, S 2.02, T 2.19, V 2.57, W 3.19, Y 3.06
E2: A 1.75, D 1.75, F 2.6, G 1.66, H 2.12, I 2.5, K 1.73, L 2.26, M 2.16, N 1.81, P 1.43, Q 1.99, R 1.97, S 2.06, T 2.18, V 2.3, W 2.86, Y 2.85
E3: A 1.34, D 1.67, F 2, G 1.28, H 1.42, I 2.48, K 0.758, L 2, M 1.88, N 1.37, P 0.936, Q 1.44, R 0.931, S 1.66, T 1.99, V 2.33, W 2.3, Y 2.08
R4: A 1.59, D 0.771, E 1.37, F 2.97, G 1.14, H 2.17, I 2.38, K 1.97, L 2.8, M 2.53, N 1.14, P 0.462, Q 2, S 1.46, T 1.61, V 1.96, W 3.03, Y 2.93
T5: A 1.49, D 1.13, E 1.65, F 2.19, G 0.704, H 1.68, I 2.56, K 1.17, L 2.11, M 1.94, N 1.29, P 0.253, Q 1.6, R 1.52, S 1.69, V 2.47, W 2.45, Y 2.17
F6: L 0.227, M 0.184, T -0.137, V 0.21, W 0.194, Y 2.19
T7: A 1.87, C 1.95, D 2.25, E 1.94, F 2, G 1.68, H 1.86, I 1.56, K 1.63, L 1.79, M 1.89, N 1.98, P 1.69, Q 1.83, R 1.58, S 1.91, V 1.7, W 1.77, Y 2.06
N8: A 1.07, D 1.76, E 1.35, F 1.09, G 0.865, H 1.34, I 1.39, K 1.5, L 1.52, M 1.18, Q 1.12, R 1.49, S 2.31, T 2.35, V 1.43, W 0.726, Y 0.987
E9: A 1.76, D 0.502, F 2.37, G 1.42, H 1.45, I 1.96, K 1.58, L 2.01, M 1.55, N 0.702, P 1.47, Q 1.58, R 1.77, S 1.35, T 0.236, V 1.72, W 2.9, Y 2.73
E10: A 2.16, C 2.31, D 2.01, F 2.01, G 1.81, H 1.96, I 1.98, K 2.07, L 2.11, M 2.02, N 1.86, P 1.38, Q 2.03, R 2.23, S 1.89, T 1.81, V 1.86, W 2.57, Y 2.21
E11: A 1.8, C 1.56, D 2.28, F 0.906, G 1.34, H 1.32, I 0.287, K 0.826, L 1.31, M 1.55, N 1.18, P -0.587, Q 1.58, R 0.608, S 1.46, T 0.995, V 0.538, W 1.07, Y 0.886
A12: C 2, F 1.54, I -0.149, L 0.876, M 2.08, S 0.218, T 0.316, V 1.51, W 0.906, Y 1.34
R13: A 1.93, D 1.98, E 2.22, F 2.73, G 1.37, H 2.19, I 2.74, K 2.05, L 2.96, M 3.15, N 2.35, Q 2.32, S 1.82, T 2.12, V 2.26, W 2.73, Y 2.92
K14: A 2.31, D 1.86, E 2.19, F 1.94, G 1.49, H 2.01, I 2, L 2.1, M 2.15, N 2.11, Q 2.18, R 2.17, S 1.89, T 1.93, V 1.83, W 1.94, Y 2.02
A15: D 0.155, E 1.11, F 3.5, G -0.185, H 1.67, I 1.43, K 0.42, L 2.02, M 1.87, N 0.555, Q 0.698, R 0.547, S 0.987, T 1.19, V 1.72, W 3.04, Y 3.31
K16: A 3.56, C 2.25, E 2.31, F 2.35, G 2.33, H 1.53, I 2.99, L 1.95, M 2.66, N -0.159, Q 2.91, R 1.75, S 1.99, T 1.89, V 3, W 2.37, Y 2.2
K17: A 2.47, D 2.44, E 2.7, F 2.36, G 1.78, H 2.24, I 2.5, L 2.45, M 2.48, N 2.15, Q 2.36, R 2.3, S 2.19, T 2.11, V 2.27, W 2.39, Y 2.44
E18: A 1.84, D 1.91, F 1.56, G 0.934, H 1.43, I 1.48, K 1.11, L 1.64, M 1.72, N 1.48, Q 1.64, R 1.22, S 1.4, T 1.33, V 1.3, W 2.24, Y 1.59
A19: C 2.03, D -0.295, E 0.159, F 2.11, G 1.06, H 1.06, I 1.53, K 0.052, L 2.46, M 2.11, N 0.597, Q 0.398, S 0.779, T 0.176, V 0.703, W 2.02, Y 2.37
E20: A 1.2, C 1.45, D 0.837, F 1.02, G 0.5, H 0.935, I 1.63, K 1.14, L 1.69, M 1.66, N 0.952, Q 1.67, R 1.11, S 0.861, T 1.11, V 1.39, W 1.27
